Our source for the Kd values is article PMC9463536 (The Journal of Biological Chemistry, 2022).

The target in this assay is T1, human claudin-4, biotinylated with NHS-PEG4-biotin (human, UniProt O14493 1-209).
T1 construct: also called biotinylated claudin-4
T1 sequence: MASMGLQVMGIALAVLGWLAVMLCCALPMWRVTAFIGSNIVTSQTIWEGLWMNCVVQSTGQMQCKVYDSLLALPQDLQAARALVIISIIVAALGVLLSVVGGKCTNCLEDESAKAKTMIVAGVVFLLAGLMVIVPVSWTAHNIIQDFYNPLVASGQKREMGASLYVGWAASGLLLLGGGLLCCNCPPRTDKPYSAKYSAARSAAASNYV
The experiment in a line: BLI. The conditions noted are these: both partners purified.

B1: cCpE^1 (cCpE^[change]) (domain or fragment)
chain: KEILDLAAATERLNLTDALNSNPAGNLYDWRSSNSYPWTQKLNLHLTITATGQKYRILASKIVDFNIYSNNFNNLVKLEQSLGDGVKDHYVDISLDAGQYVLVMKANSSYSGNYPYSILFQKF
The term Kd denotes the constant that tells how readily two partners part at equilibrium. Molecule B1 yielded a Kd of roughly 3 nM.
